Results on three molecules are retold here after patent US20190144550A1 (Pfizer, published 2019).

One experiment addresses T1, EGFR-mFc (human; mouse, UniProt P00533 25-645).
T1 construct: extracellular domain; Produced in HEK293 cells; also called recombinant EGFR-mFc; not shown: mouse IgG1-Fc domain
As to the kind of experiment: flow cytometry, CAR T cells on Day 4 after transduction incubated with EGFR-mFc, then PE-labeled goat anti-mouse Fc. The source says:
To determine target binding specificity of the CARs, recombinant proteins EGFRvII-mFc and EGFR-mFc, which comprise of the extracellular domain of either human EGFRvIII or human wild-type EGFR, respectively, fused with mouse IgG1-Fc domain, were produced in HEK293 cells. […]

The target of experiment [1] is T2, Monomeric 8-histidine tagged human EGFRvIII extracellular domain (human, UniProt P00533 298-645).
T2 construct: Analyte in all SPR assays; not shown: 8-histidine tag
As to the kind of experiment: SPR, captured by anti-human Fc, 37 C. The source says: (§1) Anti-EGFRvII mouse (m) antibody, m62G7, generated from hybridomas was sequenced and subcloned into suitable vectors for expression as murine-human chimeric antibodies. The CDRs of mouse antibody m62G7 were grafted onto human framework and expressed as human IgG1 recombinant antibody, h62G7. Affinity variants of h62G7 were made by introducing mutations in the CDRs of the heavy and light chains. The affinities of recombinant anti-EGFRvIII chimeric antibody m62G7 and humanized h62G7 antibodies were measured on a surface plasmon resonance Biacore™ T200 biosensor equipped with a research-grade anti-human Fc coupled CM4 sensor chip (GE Healthcare Inc., Piscataway, N.J.). Anti-EGFRvII antibodies were then captured by anti-human Fc. Monomeric 8-histidine tagged human EGFRvIII extracellular domain was then injected as the analyte at 10-fold dilution series with top concentration at 1000 nM. Affinity of anti-EGFRvIII antibodies towards human EGFRvIII was measured at both 25° C. and 37° C.
(In general: Surface plasmon resonance follows binding to a sensor surface in real time, without labels.)

Experiment [2] concerns the target T3, 8-histidine tagged recombinant wild-type protein EGFRwt (UniProt P00533 25-645, limits assumed).
T3 construct: not shown: 8-histidine tag
As to the kind of experiment: SPR, captured by anti-human Fc.

Experiment [3] deals with T2, Monomeric 8-histidine tagged human …. As to the kind of experiment: SPR, captured by anti-human Fc, 25 C; 25 C.
Experiment [4] has the same target. As to the kind of experiment: SPR, captured by anti-human Fc, 25 C.
Text: as §1

Residue numbers refer to the chain shown, from its start.

B1: C6 EGFRvIII specific CAR (other)
chain: QVQLVQSGAEVKKPGSSVKVSCKASGDTFSSNAISWVRQAPGQGLEWMGVIIPIFGTADYAQKFQGRVTITADESTSTAYMELSSLRSEDTAVYYCARHTYHEYAGGYYGGAMDPWGQGTLVTVSSGGGGSGGGGSGGGGSGGGGSELQSVLTQPPSASGTPGQRVTISCSGSSSNIGSNYVYWYQQLPGTAPKILIYRNNQRPSGVPDRFSGSKSGTSASLAISGLRSEDEADYYCAAWDDNLSGWVFGTGTKLTVLTTTPAPRPPTPAPTIASQPLSLRPEACRPAAGGAVHTRGLDFACDIYIWAPLAGTCGVLLLSLVITLYCKRGRKKLLYIFKQPFMRPVQTTQEEDGCSCRFPEEEEGGCELRVKFSRSADAPAYQQGQNQLYNELNLGRREEYDVLDKRRGRDPEMGGKPRRKNPQEGLYNELQKDKMAEAYSEIGMKGERRRGKGHDGLYQGLSTATKDTYDALHMQALPPR
notes: Chimeric antigen receptor on primary human T cells; also called EGFRvIII specific clone C6 CAR
Take B1: the binding result with EGFR-mFc is recorded as “binds”.

B2: h62G7-EQ/L1-DV (antibody, V domains shown)
VH: QVQLVQSGAEVKKPGASVKVSCKASGYTFTDYTLHWVRQAPGQGLEWMGGIWPITGGTTYNQKFKGRVTMTRDTSTSTVYMELSSLRSEDTAVYYCARGEAQGSWGQGTLVTVSS
VL: DVVMTQSPLSLPVTLGQPASISCKSSQSLLYSNDKTYTNWFQQRPGQSPRRLIYEVSKLDVGVPDRFSGSGSGTDFTLKISRVEAEDVGVYYCGQDTHFPLTFGGGTKVEIK
notes: Human IgG1
In experiment [1], B2 came in with a dissociation constant Kd of 186 nM, a koff of 0.069 s⁻¹ and a kon of 370000 M⁻¹ s⁻¹. Besides, in experiment [2], the binding result is “no binding (tested: 1000 nM)”. The molecule also had an off-rate (koff) in experiment [3] of 0.012 s⁻¹. In experiment [4], this molecule displayed a dissociation constant Kd of 59.9 nM and a kon of 200000 M⁻¹ s⁻¹.

B3: h62G7-H14/L6 (antibody, V domains shown)
VH: B2 VH with Q102E
VL: B2 VL with D34G, T38L, E55Q, V61S
notes: Human IgG1
In experiment [1], B3 yielded a Kd of 1580 nM, a koff of 0.068 s⁻¹ and an on-rate (kon) of 43000 M⁻¹ s⁻¹. Moreover, the binding result in experiment [2] was “no binding (tested: 1000 nM)”. In experiment [4], this molecule yielded a dissociation constant Kd of 992 nM, a koff of 0.013 s⁻¹ and a kon of 13000 M⁻¹ s⁻¹.

Usually Kd stands for the free concentration of one partner at which half of the binding sites on the other are occupied at equilibrium, for simple one-to-one binding. Read a high Kd as weaker binding. What is called koff is the first-order rate constant of dissociation. By kon is commonly meant the second-order rate constant of association.
